Experiment [1] deals with T1, human SEZ6L ECD-His (human, UniProt Q9BYH1 29-955).
T1 construct: whole entry named
T1 sequence: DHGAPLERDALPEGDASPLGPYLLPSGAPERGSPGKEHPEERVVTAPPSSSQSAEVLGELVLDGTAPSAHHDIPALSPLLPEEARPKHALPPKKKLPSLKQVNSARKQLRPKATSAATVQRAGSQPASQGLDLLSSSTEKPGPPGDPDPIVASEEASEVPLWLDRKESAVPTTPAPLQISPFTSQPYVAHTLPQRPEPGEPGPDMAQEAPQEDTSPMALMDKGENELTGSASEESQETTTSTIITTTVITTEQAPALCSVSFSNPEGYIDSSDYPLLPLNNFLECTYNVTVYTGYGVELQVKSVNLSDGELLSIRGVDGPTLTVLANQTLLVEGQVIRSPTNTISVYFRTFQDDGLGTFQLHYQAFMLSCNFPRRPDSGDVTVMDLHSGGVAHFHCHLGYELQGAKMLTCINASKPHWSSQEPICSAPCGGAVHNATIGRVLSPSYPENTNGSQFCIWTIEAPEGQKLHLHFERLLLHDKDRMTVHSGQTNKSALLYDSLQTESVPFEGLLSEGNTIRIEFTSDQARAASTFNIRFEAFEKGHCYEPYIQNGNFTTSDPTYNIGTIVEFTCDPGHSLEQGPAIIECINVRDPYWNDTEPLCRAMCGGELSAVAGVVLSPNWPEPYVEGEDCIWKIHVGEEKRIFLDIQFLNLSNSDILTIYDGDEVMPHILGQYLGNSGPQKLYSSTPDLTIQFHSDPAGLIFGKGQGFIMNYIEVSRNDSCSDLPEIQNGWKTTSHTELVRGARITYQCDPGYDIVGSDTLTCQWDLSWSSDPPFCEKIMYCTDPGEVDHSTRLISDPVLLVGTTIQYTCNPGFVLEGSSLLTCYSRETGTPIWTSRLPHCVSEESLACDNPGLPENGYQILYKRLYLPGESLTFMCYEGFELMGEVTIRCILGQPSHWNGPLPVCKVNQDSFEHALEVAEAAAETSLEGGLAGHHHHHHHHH
Nature of the experiment: ELISA on plates coated with SEZ6L protein.
Protocol: To determine cross reactivity to family member proteins, SEZ6L and SEZ6L2, an ELISA-based assay was used. Plates were coated with SEZ6, SEZ6L, or SEZ6L2 proteins at 0.2 μg/mL in PBS overnight. After washing with PBS containing 0.05% (v/v) Tween 20 (PB ST), the wells were blocked with 2% (w/v) BSA in PBS (PB SA), 100 μL/well for 1 hour at room temperature. Antibody was then added at 1 μg/mL in 100 μL PBSA for 1 hour at room temperature. After washing with PBST, 100 μL/well HRP-labeled goat anti-mouse IgG diluted 1:2,000 in PBSA for 1 hour at room temperature. […] After developing, an equal volume of 2M H₂SO₄ was added to stop substrate development and analyzed by spectrophotometer at OD 450.

Experiment [2] addresses T2, mouse SEZ6 on Neuro2a cells (mouse, UniProt Q7TSK2 20-991).
T2 construct: endogenous on Neuro2a cells; also called murine SEZ6; mSEZ6
Nature of the experiment: flow cytometry on Neuro2a cells expressing mouse SEZ6.
Protocol: (§1) Briefly 1×10⁵ cells per well of Neuro2a, RIN-5mF, or yeast displaying cynomolgus SEZ6 cells were incubated for 30 minutes with 50 μL PBS (2% FCS) buffer with 5 μg/mL antibody. […] After incubating for 15 minutes cells were washed twice with the PBS buffer and re-suspended in the same with DAPI for flow cytometry analysis of Neuro2a and Rin-m5F or buffer without DAPI for flow cytometric analysis of yeast cells with cSEZ6.

The target in experiment [3] is T3, rat SEZ6 on RIN-m5F cells (rat, UniProt Q7TSK2 20-991 (mouse entry)).
T3 construct: endogenous on RIN-m5F cells; also called rSEZ6
T3 chain: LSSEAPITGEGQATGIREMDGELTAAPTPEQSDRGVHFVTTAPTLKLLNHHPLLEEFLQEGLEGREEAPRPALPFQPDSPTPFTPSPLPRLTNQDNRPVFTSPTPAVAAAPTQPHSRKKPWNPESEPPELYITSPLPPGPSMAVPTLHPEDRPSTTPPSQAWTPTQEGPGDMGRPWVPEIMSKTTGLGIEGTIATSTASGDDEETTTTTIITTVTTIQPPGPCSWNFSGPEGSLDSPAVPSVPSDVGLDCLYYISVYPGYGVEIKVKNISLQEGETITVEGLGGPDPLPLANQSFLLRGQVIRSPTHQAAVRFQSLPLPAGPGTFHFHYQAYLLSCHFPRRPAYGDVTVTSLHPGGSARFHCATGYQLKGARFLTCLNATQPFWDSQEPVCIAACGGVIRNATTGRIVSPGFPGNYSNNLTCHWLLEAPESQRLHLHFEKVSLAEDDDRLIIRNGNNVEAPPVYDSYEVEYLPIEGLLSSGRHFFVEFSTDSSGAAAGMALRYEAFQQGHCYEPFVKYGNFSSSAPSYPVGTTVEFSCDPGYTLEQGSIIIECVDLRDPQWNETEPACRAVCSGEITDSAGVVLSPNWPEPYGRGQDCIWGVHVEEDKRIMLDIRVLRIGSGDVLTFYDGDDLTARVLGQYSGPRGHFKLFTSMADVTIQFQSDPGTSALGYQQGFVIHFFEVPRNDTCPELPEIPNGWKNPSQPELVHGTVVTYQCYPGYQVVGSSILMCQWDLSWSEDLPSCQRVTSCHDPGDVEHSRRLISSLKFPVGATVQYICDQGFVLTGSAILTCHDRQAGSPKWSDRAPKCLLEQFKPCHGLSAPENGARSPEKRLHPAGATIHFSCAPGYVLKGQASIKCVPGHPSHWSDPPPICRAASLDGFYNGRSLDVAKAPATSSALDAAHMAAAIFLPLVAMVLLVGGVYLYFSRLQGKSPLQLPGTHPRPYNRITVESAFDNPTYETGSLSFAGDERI
Nature of the experiment: flow cytometry, RIN-m5F cells, 5 ug/mL antibody.
Protocol: as §1

T2 sequence (Q7TSK2 20-991): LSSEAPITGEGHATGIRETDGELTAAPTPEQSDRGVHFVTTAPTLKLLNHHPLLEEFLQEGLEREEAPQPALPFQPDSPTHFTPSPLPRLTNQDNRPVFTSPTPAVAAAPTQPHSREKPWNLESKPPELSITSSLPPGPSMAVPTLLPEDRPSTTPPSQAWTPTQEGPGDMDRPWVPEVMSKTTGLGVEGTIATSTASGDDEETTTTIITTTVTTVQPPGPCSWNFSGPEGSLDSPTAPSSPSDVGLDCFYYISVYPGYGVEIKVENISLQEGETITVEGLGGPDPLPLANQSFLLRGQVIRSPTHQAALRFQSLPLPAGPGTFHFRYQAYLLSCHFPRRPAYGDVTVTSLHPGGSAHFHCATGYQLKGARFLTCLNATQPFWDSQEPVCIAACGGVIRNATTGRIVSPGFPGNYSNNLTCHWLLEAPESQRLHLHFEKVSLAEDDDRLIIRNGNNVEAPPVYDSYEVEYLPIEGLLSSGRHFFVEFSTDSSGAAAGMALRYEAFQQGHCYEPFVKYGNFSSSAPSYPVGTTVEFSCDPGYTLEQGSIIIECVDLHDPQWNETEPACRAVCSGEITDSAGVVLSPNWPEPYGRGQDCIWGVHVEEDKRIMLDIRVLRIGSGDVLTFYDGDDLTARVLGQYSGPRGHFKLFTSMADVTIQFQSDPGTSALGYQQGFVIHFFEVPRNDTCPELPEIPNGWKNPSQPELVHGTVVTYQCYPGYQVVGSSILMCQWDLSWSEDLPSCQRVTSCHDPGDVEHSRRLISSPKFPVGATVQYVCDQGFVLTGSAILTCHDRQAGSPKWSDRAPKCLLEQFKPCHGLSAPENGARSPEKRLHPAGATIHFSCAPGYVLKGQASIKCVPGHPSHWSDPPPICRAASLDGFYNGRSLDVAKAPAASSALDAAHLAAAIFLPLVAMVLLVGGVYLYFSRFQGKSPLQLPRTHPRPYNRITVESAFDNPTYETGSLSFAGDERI

B1: SC17.17 (antibody, V domains shown)
VH: EVQLQQSGPEVMKPGASVKMSCKASGYTFTDYNMHWVKQNQGKSLEWIGEINPNIGGTGYNQKFKGKATLTVHKSSSTAYMELRSLTSEDSAVYYCARTYSYYSYEFAYWGQGTLVTVSA
VL: QIVLTQSPAIMSASPGEKVTMTCSASSSVSYMHWYQQKSGTSPKRWIYDTSKLPSGVPARFSGSGSGTSYSLTISSMEAEDAATYYCQQWSSTPPTFGAGTKLELK
notes: murine mAb
As for B1, the binding result is reported as “no binding (tested: 1 µg/mL)” in experiment [1], “no binding (tested: 5 µg/mL)” in experiment [2] and “binds” in experiment [3].

B2: SC17.34 (antibody, V domains shown)
VH: EVQLQQSGPELVKPGSSVKISCKASGYTFTDYNMDWVKQSHGKRLEWIGYIYPDNGGAGYNQKFKGKATLTVDKSSSTAYMELRSLTSEDSAVYYCSRSITTAWFAYWGQGTLVTVSA
VL: DIKMTQSPSSMYASLGERVTITCKASQDINSYLSWFQQKPGKSPKTLIYRANRLVDGVPSRFSGSGSGQDYSLTISSLEYEDMGIYYCLQYDEFPPTFGGGTKLEIK
notes: murine mAb
For the molecule B2, the binding result was “no binding (tested: 1 µg/mL)” in experiment [1], “no binding (tested: 5 µg/mL)” in experiment [2] and “binds” in experiment [3].

Values taken from patent publication US20190022241A1 (AbbVie / Abbott, published 2019).
